Patent US20250304664A1 (VIB VZW, published 2025)
Substitutions are numbered along the chain they refer to. Names may count otherwise.

T1: human wild type Sodium taurocholate co-transporting polypeptide (NTCPWT) (human, UniProt Q14973 1-349)
T1 construct: Transiently expressed in HEK293 cells; also called SLC10A1; human wildtype NTCP
T1 sequence: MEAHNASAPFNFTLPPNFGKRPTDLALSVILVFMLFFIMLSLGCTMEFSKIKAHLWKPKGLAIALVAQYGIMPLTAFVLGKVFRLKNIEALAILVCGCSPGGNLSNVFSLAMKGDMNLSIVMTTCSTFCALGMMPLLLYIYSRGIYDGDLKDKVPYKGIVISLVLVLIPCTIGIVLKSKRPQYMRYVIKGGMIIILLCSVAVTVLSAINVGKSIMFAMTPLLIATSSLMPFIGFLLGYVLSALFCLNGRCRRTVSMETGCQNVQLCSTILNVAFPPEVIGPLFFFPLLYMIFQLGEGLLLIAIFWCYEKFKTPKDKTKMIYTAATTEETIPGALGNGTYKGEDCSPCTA

T2: N-glycosylation knocked-out NTCP (NTCPWT_KOG) (human, UniProt Q14973 1-349)
T2 chain: T1 sequence with N5T, N11T

T3: NTCP consensus-mutant construct used for cryo-electron microscopy structure determination (NTCPEM) (human (consensus design), UniProt Q14973 2-328)
T3 chain: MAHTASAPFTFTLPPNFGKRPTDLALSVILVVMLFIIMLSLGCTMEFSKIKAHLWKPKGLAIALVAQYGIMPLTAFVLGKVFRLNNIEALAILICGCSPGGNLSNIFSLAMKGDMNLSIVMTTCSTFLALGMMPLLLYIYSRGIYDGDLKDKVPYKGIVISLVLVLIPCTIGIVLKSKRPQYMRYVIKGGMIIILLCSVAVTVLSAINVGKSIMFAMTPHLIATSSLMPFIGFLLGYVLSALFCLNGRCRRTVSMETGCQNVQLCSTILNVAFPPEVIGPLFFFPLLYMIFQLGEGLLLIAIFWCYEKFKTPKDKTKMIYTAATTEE

B1: NbNTCP_87 (VHH)
VHH: QVQLVESGGGLVQAGGSLRLSCAVSGRTTANYNMGWFRQAPGKEREFVAGIKWSSGSTYVADSAKGRFTISRDNAKNSVYLQMDSLKPEDTALYYCAANYYGVSWFLISPSSYDYWGQGTQVTVSS
notes: Family 21; expressed in E. coli periplasm; also called Nb87
B2: NbNTCP_91- N27D variant (VHH)
VHH: QVQLVESGGGLVEAGGSLRLSCAASTDLRSYAMAWFRQAPGKEREFVSFINWNYGNTRYADSVKGRFTISRDNAKITVYLQMNSLKPEDTAVYYCAAATIGRLAGIDSTTLYDYWGQGTQVTVSS
notes: Single mutant of Nb91; also called Nb91 N27D
B3: NbNTCP_91-N53D variant (VHH)
VHH: B2 VHH with D27N, N53D
notes: Single mutant of Nb91; also called Nb91 N53D
B4: NbNTCP_91- L103N variant (VHH)
VHH: B2 VHH with D27N, L103N
notes: Single mutant of Nb91; also called Nb91 L103N
B5: NbNTCP_91- R29G variant (VHH)
VHH: B2 VHH with D27N, R29G
notes: Single mutant of Nb91; also called Nb91 R29G; NbNTOP_91- R29G variant
B6: NbNTCP_91- N27E variant (VHH)
VHH: B2 VHH with D27E
notes: Single mutant of Nb91; also called Nb91 N27E
B7: NbNTCP_91- R29S variant (VHH)
VHH: B2 VHH with D27N, R29S
notes: Single mutant of Nb91; also called Nb91 R29S
B8: NbNTCP_91- R29N variant (VHH)
VHH: B2 VHH with D27N, R29N
notes: Single mutant of Nb91; also called Nb91 R29N
B9: NbNTCP_91- N27Q variant (VHH)
VHH: B2 VHH with D27Q
notes: Single mutant of Nb91; also called Nb91 N27Q
B10: NbNTCP_87 - S55Q variant (VHH)
VHH: B1 VHH with S55Q
notes: Single mutant of Nb87; also called Nb87 S55Q
B11: NbNTCP_87 -A30Q variant (VHH)
VHH: B1 VHH with A30Q
notes: Single mutant of Nb87; also called Nb87 A30Q
B12: NbNTCP_87 - S111R variant (VHH)
VHH: B1 VHH with S111R
notes: Single mutant of Nb87; also called Nb87 S111R
B13: NbNTCP_87 - S55E variant (VHH)
VHH: B1 VHH with S55E
notes: Single mutant of Nb87; also called Nb87 S55E

What follows are binders tested against T1, human wild type Sodium taurocholate … (assay: cell surface labelling, 20 µM Nb87 and 10 µM (AntiC)2-mCherryXL, fluorescence microscopy).
Procedure: (§1) Adherent HEK293T cells were seeded at 0.3×10⁶/mL using 500 μl per well in a 24-well plate and incubated for 2 days. 5 μg of cDNA coding for NTCP, or control neurotransmitter (EAAT1) was transfected as follows: (1) 5 μg DNA was mixed with 50 μl Opti-MEM and incubated for 5 min; (2)² μl lipofeactamine was mixed with 50 μl of Opti-MEM and incubated for 5 min: (3) DNA and lipofectamine solutions were mixed in 1:1 ratio and incubated for 20 min. 100 μl of the mixture was added to each well. After incubation for 6-8 h the medium was changed to DMEM medium, and incubated for 2 days post transfection. […] Excess of primary unlabeled Nb was removed and 10 μM of the secondary labelled Nb ((AntiC)2-mCherryXL) was added following a 1 h incubation. Cells were washed once with fresh medium prior to detection of fluorescence on an inverted microscope.

Row | Binder | binding result
1 | B1 | binds

Target: T2, N-glycosylation knocked-out NTCP …
Assay: competition with Nb91, substrate uptake read-out in HEK293 cells expressing NTCPWT-KOG, Nbs at 10 µM

Row | Binder | binding result
2 | B2 | binds
3 | B3 | binds
4 | B4 | binds
5 | B5 | binds
6 | B6 | binds
7 | B7 | binds
8 | B8 | binds
9 | B9 | binds

Target: T2, N-glycosylation knocked-out NTCP …
Assay: competition with Nb87, substrate uptake read-out in HEK293 cells expressing NTCPWT-KOG, Nbs at 2 µM

Row | Binder | binding result
10 | B10 | binds
11 | B11 | binds
12 | B12 | binds
13 | B13 | binds

The binders below were run against T4, excitatory amino acid transporter, EAAT1 (UniProt P43003 1-542, limits assumed) (assay: cell surface labelling of transfected HEK293T cells, Nb87 as primary Nb and (AntiC)2-mCherryXL as secondary Nb, fluorescence microscopy).
T4 construct: whole, on cells; Negative control expressed on HEK293T cells; also called unrelated neurotransmitter transporter
T4 sequence (P43003 whole entry): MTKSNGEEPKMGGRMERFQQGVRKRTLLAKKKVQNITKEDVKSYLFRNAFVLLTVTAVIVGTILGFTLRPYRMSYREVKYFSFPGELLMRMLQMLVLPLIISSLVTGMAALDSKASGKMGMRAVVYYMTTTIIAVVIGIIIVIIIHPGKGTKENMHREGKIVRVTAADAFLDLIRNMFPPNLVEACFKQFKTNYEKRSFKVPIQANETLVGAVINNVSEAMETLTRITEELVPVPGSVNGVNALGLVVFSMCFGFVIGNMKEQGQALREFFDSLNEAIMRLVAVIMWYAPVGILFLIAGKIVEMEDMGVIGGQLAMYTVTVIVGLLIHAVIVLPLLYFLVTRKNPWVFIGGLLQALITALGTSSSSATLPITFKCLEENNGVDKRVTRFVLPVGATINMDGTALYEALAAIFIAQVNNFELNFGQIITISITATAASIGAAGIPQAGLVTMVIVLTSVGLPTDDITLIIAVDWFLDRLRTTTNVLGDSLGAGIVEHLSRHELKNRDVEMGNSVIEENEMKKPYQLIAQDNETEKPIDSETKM
Procedure: as §1

Row | Binder | binding result
14 | B1 | no binding (tested: 20 µM Nb87)

Target: T3, NTCP consensus-mutant construct used …
Assay: cell-based or functional assay

Row | Binder | half-maximal inhibitory concentrations (IC50) of Na+-induced fluorescent-substrate uptake by cells expressing NTCPEM [nM]
15 | B1 | ~180
